B1: TPR t1 (parent)
chain: GACCAAUCUGCCCUCAGAGCUCGAGAACAUCUUCGGAUGCAGAGGAGGCAGGCUUCGGUGGCGCGAUAGCGCCAACGUCCUCAACCUCCAAUGCAUCCCACCACAUGAUGAUGCCUGAAGAGCCUUGGUUUUUUG

In the data set the parent is B1. The data set is described as follows: polymerase ribozyme fitness, log enrichment relative to wild type (log ratio); higher = more active; in vitro selection for triplet polymerase activity. Put shortly: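 A single round of triplicate in vitro selection, including frozen incubation at −7 °C, was applied to PCR-built, transcribed mutant libraries of each subunit of a heterodimeric triplet polymerase ribozyme. Illumina sequencing of input and output libraries retained genotypes with ≥10 input reads and ≥1 read per output. Fitness is the base-2 logarithm of genotype enrichment divided by wild-type enrichment, from inverse-variance-weighted replicate averages.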
With GACCAAUCUGCCCUCAGAGCUCGAGAACAUCUUCGGAUGCAGUGGAGUCAGGCCUCGGUGGCGCGAUAGCGCCAACGUCCUCAACCUCUAAUGCAUCCCACCACAUGAUGAAGCCUGAAGAGCCUUGGUUUUUUG [A43U G48U U54C C89U U112A], the “polymerase ribozyme fitness (log ratio)” value was -0.663. With GACCAAUCUGCCCUCAGAGCUCGAGAACAUCUUCGGAUGCAGAGGAUGCAGGCUUCGGUGGCGCGAUAGCGCCAACGUCCUCAACCUCCAAUGCAUCCCACCACAUGAUGAUGCCUGAAGAGCCUUAGUUUUUUG [G47U G127A] the figure was -2.68; with GACCAAUCUGCCCUCAGAGCUCGAGAACAUCUUCGGAUGCAGAGGAGGCAGGCUUCGGUGGCGCGAUAGUGCCAACGUCCUCAACCUCCAUUGCAUCCCACCACAUGAUGAUACCUGAAGAGCCUUGGUUUUUUG [C70U A91U G113A], -2.99; with GACCAAUCUGCCCUCAGAGCUCGAGGACAUCUUCGGAUGCAGAGGAGGCAGGCUUCGGUGGCGCGAUAGCGCCAACGUCCUCAACCUCCAAUGCAUCCCACCACAUGAUGAUGCCUGAAGAGGGUUGGUUUUUUG [A26G C123G C124G], 0.832. As for GACCAAUCUGCCCUCAGAGCUCGAGAACAUCUUCGGAUGCAGAGGAGGCAGGCUUCGGUGGCGCGAUAGCGUCAACGUCCUCAACCUCCAAUGCAUCCCACCACUUGAUGAUGCCUGAAGAGCCUUGGUUCAUUG [C72U A105U U131C U132A], the figure is -2.36; as for GACCAAUCUGCCCUCAGAGCUCGAGAACUUCUUCGGAUACAGAGGAGGCAGGCUUCGGUGGCGCGAUAGCGCCAACGUCCUCAACCUCCAAUGCAUCCCACCACAUGAUGAUGCCUAAAGAGCCUUGGUUUUUUG [A29U G39A G117A], -2.71. On to GAUCAAACUGCCCUCAGAGCUCGAGAACAUCUUCGGCUGCAGAGGAGGCAGGCUUCGGUGGCGCGAUAGCCCCAACGUCCUCAACCUCCAAUGCAUCCCACCACAUGAUGAUGCCUGAAGAGCCUUGGUUUUUUG [C3U U7A A37C G71C], for which the “polymerase ribozyme fitness (log ratio)” value was -0.976.

As for GGCCAAUCUGCCCUCAGAGCUCGAGAACAUCUUCGGAUGCAGAGGAGGCAGGCUUCGGUGGAGCGAUAGCGCCAACGUCCUCAACCUCCAAUGCAUCCCACCACAUGAUGAUGCCUGAAGAGCCUUGGUUUUUUG [A2G C62A], the “polymerase ribozyme fitness (log ratio)” value is -0.128. With GACCAAUCUGCCCUCAGAGGUCGAGAACAUCUUCGGAUGCAGAGGAGGCAGGCUUCGGUGGCGCGAUAUCGCCAACGUCCUCAACCUCCAAUGCAUCCAACCACAUGAUGAUGCCUGAAGAGCCUUGGUUUUUUG [C20G G69U C99A] the figure was -4.6. With GACCAAUCUGCCCUCAGAGCUCGAGAACAUCUUCGGAUGCAGAGGAGGCAGGAUUCGGUGGCGCGAUAGCGCCAACGUCCUCAACCUCCAAUGCAUCACACCACAUGAUGAUGCCUGAAGAGCCUUGGUUUUUUG [C53A C98A] the figure was -5.56.

Take GACCAAUCUGCCCUCAGCACUCGAGAACAUCUUCGGAUGCAGAGGAGGCAGGCUUCGGUGGCGCGAUAGCUCCAACGUCCUCAACCUCCAAUGCAUCCCACCAUAUGAUGAUGCAUGAAGAGCCUUGGUUUUUUG [A18C G19A G71U C104U C115A]: the “polymerase ribozyme fitness (log ratio)” value was -0.527.

On to GACCAAUCUGCCCUCAGAGCUCGAGAACAUCUUCGGAUGAAGAGGAGGCAGGCUUCGGUGGCGCGAUAGCGCCAACGUCCUCAACCUCCAAUGCAUCCCACCACAUGAUGAUGCCUUAAGAGCCUUGGUUUUUUG [C40A G117U], for which the “polymerase ribozyme fitness (log ratio)” value is -4.5.

GACCAAUCUGCCCUCAGAGCUCGAGAACAUCUUCGGAUGCAGAGGAGGCGGGCUUCGGUCGCGCGAUAGCGCCAACGUCCUCAACCUCCAAUGUAUCCCACCACAUGAUGAUGCCUGAAGAGCCUUGGGUUUUUG [A50G G60C C94U U129G]: the “polymerase ribozyme fitness (log ratio)” value is -3.05. As to GACCAAUCUGCUCUCAGAGCUCGAGAACAUCUUCGGAUGCAGAGGAGGCAGGCUUCGGUGGCGCGUUAGCGCCAACGUCCUCAACCUCCAAUGCAUCCCACCACAUGAUGAUGCCUGAAGAGACUUGGUUUUUUG [C12U A66U C123A], the “polymerase ribozyme fitness (log ratio)” value is 0.936. Take GACCAAGCUGUCCUCAGCGCUCGAGAACAUCUUCGGAUGCAGAGUAGGCAGGAUUCUGUGGCGCGAUAGCGUCAACGUCCUCAACCUCCAAUGCAUCCCACCACAUGAUGAUGCCUGAAGAGCCUUGGUUUUUUG [U7G C11U A18C G45U C53A G57U C72U]: the “polymerase ribozyme fitness (log ratio)” value is -3.58. As for GACCAAUCUGCCCUCAGAGCUCGAGAACAUCUUCGGAUGCAGAGGAGGCAGGCUUCGGUGGCGCGAUAGCGCCAACGUCCUCAACCUCCAACGCAUCCCACUACAUGAUGAUGCCUGAAGAGCCUUGGUUUUUUG [U92C C102U], the figure is -4.04. On to GACCAAUCUGCCCUCAGAGCUCGAGAACAUCUUCGGAUGCAGAUGAGGCAGGCUUCGGUGGCGCGAUAGCGCCAACGUCCUCAACCUCCAAUGCAUCCCACCACAUGAUGAUGCCUGAAGAGCGUUGGUUUUUUG [G44U C124G], for which the “polymerase ribozyme fitness (log ratio)” value is -0.383.

With GAACAAUCUGCCCUCAGAGCUCGAGAACAUCUUCGGAUGCAGAGGAGGCAGGCUUCGGUGGCGCGAUAGCGCCAACGUCCUCAACCUCCAAUGCAUCCCACUACAUGAUGAUGCCUGAAGGGCCUUGGUUUUUUG [C3A C102U A121G], the “polymerase ribozyme fitness (log ratio)” value was -0.526. Take GACCAAUCUGUCCUCAGAGCUCGAGAACAUCUUCGGAUGCAGAGGAGGCAGGCUUCGGUAGCGCGAUAGCGCCAACGUCCUCAACCUCCAAUGCAUCCCACCACACGAUGAUGCCUGAAGAGCCUUGCUUUUUUG [C11U G60A U106C G128C]: the “polymerase ribozyme fitness (log ratio)” value was -3.82. As for GACCAAUCUGCCCUCAGAGCUCGAGACCAUCUUCGGAUGCAGAGGAGGCAGGCUUUGGUGGCGCGAUAGCGCCAACGUCCUCAACCUCCAAUGCAUCCCACCACAUGAUGAUGCCUGAAGAGCCUUGGUUUUUUG [A27C C56U], the “polymerase ribozyme fitness (log ratio)” value was -2.85. With GACCAAUCUGCCCUCAGAGCUCGAGAACAUCUUCGGAUGCUGAGGAGGCAGGCUUCGGUGGCGCGAUAGCGCCAACGUCCUCAACCUCCAAUGCAUCCCACCACAUGAUGACGCCUGAAGAGCCUUGGUUUUUUG [A41U U112C] the figure was 0.631.

Values taken from the RNAGym collection of RNA variant scans (doi:10.1073/pnas.2313332121).
